Reference: patent publication US12611470B2, “Chromatin-opening element for stable long term gene expression” (CZ Biohub SF, LLC, priority 2019, dated 2026)

Tested on: P19 cells
Assay: Lentiviral transduction silencing experiment, UCOE linked to CMV, EF1α, RSV or PGK promoter driving GFP
Assay type: cell-based, mouse
Text: The graphs show the raw data of measured percent GFP positive cells (% GFP+) for each construct over time. Transduced populations were sorted into triplicate wells using FACS at day 0 (5 days after lentiviral transductions) to begin the study at 100% GFP positive cells. Expression is lost quickly within the first 10 days, and then stabilizes around day 15. Data is reported as mean±SD from biological triplicates. Two positive UCOE controls (A2UCOE, 3′UCOE) and a negative control (no insulator region) were used.
Percent GFP positive cells at the final timepoint (day 26 for CMV and RSV, day 27 for PGK and EF1α) of the lentivirus silencing experiment across the four tested promoters is plotted. P19 cells were FACS-sorted five days after transduction (day 0) and then assayed over a 26 or 27-day time period thereafter. Data is reported as mean±SD from three biological replicates.
Two plasmids (pCS3800: encoding HIV-1 Gag; pCS380: encoding VSVg envelope protein) were used with varying versions of the donor plasmid pCS3799. HEK293T cells were plated at 5×10^6 cells in a 10 cm dish. Twenty-four hours after plating, the three plasmids (10 μg donor, 8 μg pCS3800, 10 μg pCS3801) were co-transfected together using a calcium phosphate protocol (Zufferey, R. T. and Trono, D. (2001) Current Protocols in Human Genetics, 26 (1), 12.10.1-12.10.12; DOI: 10.1002/0471142905.hg1210s26 (55)). The total DNA was brought to 500 μL in water, to which 500 μL of 2×HEPES-buffered saline, pH7.0 (Alfa Aesar) was added and mixed. One-tenth of the total volume (100 μL) of 2.5 M calcium chloride (Sigma-Aldrich) was then added to the mixture, followed by a 20-minute incubation. The mixture was then added to the plate in a dropwise manner. Media was replaced six hours later, and the supernatant was collected at 48 hr after the transfection, filtered through 0.4 μm filter, and frozen at −80° C. in 1 mL aliquots. Lentiviral aliquots were thawed in a 37° C. bead bath before transductions.
P19 cells were plated at 20-30,000 cells/well in 12-well plates one day before transduction. Twenty-four hours after plating, cells were transduced at varying dilutions of the lentiviral stock (ranging from 1:2 to 1:100) in DMEM+10% FBS with 8 μg/mL polybrene (Santa Cruz Biotechnologies). Media was refreshed on P19 cells 24 hours after transduction, and cells were passaged and assayed through a MACSQuant® VYB flow cytometer (Miltenyi Biotec) 48 h after transduction. MOI was determined by reporter expression at this timepoint using the following formula: MOI=ln (1/1-p) where p is the % of cells that are GFP positive at 48 hours post-transduction (Chen, S. et al. (2015) Cell, 160, 1246-1260 (56)).
Cells were FACS-sorted on the BD Influx™ cell sorter at the Stanford FACS Facility using the 488-nm laser and 525/40 filter to assay GFP expression. After gating for singlets and viability, GFP+ gate was drawn to be <0.1% GFP positive in non-transduced P19 cells. GFP+ gates were re-drawn for each promoter set to avoid the ˜10% highest and lowest expressing cells within the GFP+ gate, but the same gate was used for every experimental condition under the same promoter. Triplicate wells of each population (12-15,000 cells/well in a 24-well plate) were collected.
Fluorescence data throughout silencing experiments was obtained using a MACSQuant® VYB flow cytometer (Miltenyi Biotec). EGFP was measured through the 488-nm laser and 525/50 nm band pass filter. Flow cytometry data was analyzed using the FlowJo™ single cell flow cytometry analysis software (Tree Star). After being gated for singlets and viability, GFP+ gates in FlowJo were drawn such that a non-transfected or non-transduced P19 cell population was at 1% GFP+. Median values reported are of cells within the GFP+ gate, both % GFP positive and median are reported with the standard deviation of biological replicates. […]

B1: Candidate 6: Full length SRF-UCOE, SEQ ID NO:1; region between human SURF1 and SURF2 including first introns, chr9 (nucleic acid, listed as Homo sapiens)
DNA: GCACACGACCACAATTCCACTGAAAGCATTTTAATACGGAACTTGTCACTCCCAGGGAGCCTCCGCTCAGCCGGCAGTTGGTTCATTTCAATCCCCACGACAACCCTTCAAAGTGCAGGGCAGACAGCAGGTGGCTCTGCCCAGGCGCCTGGATCACAGCCCGGCCTGCAGCCCTCACCTGGGCGCGGGGAGACCCTGAGGACGCTCCTCCAGGCGGCGCTGGCCGGGGCCTGCGGACACGGACGGGCGGGCTGAGCTCCGGGACCCCTCCCCGCGCCCCGCACCCCGCACCCCGCACCCCGCACCCCGCACCCGGCGCTCACCCGTCCCAGCCCCGCCGCCCGCAGCCCCAGCTGCAACGCAGCCACCGCCGCCATCGCACCCGGCCCCGCGGGCGCTTCCGGGACGCAGGAGGCATCTGCATCCGGGGCGCCGCTGAGTCCCGCCCAGAGCCCCGCCCCCGGCTCCAGGTTCTGCGAGCGGCTTCCGCCGGGCTGCTCCGCGGGCGCGTCGGCCATGAGCGAGTTGCCGGGCGACGTGCGGGCGTTTCTGCGGGAGCACCCGAGCCTGCGGCTCCAGACGGACGCCCGCAAGGTTCGCAGCGCGGGAGGGGAACGGAGTGGCGGAGAAGGGCGCAGTTGGGATGAGGGGCTGAGGGGAGGGCAGGGGAGAGGAGAGGGCAGGGGAGAGGGGAGAGGGGAGAGCAGGAGAGAGGGGAAGGCAGGGGAGAGGGCGCGGCGGGATCAGGGGAGGAGAGGGAAGGGGGCGCGGCAGGAGGGGGCACCAGGGAGCGGAGCCCTGGCCCTCCTGACGTCCTGCCCGCCCACGCGTCCGCAGGTGAGGTGCATCCTGACAGGTCACGAGCTGCCCTGCCGCCTGCCGGAGCTCCAGGTCTACACCCGCGGCAAAAAGTACCAGCGGCTGGTCCGCGCCTCCCCGGCCTTCGACTATGCAGAGTTCGAGCCGCACATCGTGCCCAGCACCAAGAACCCGTAGGTGGTC
With B1 the “GFP positive cells / expression compared to the negative control” value (Ef1α promoter, final timepoint) was 2.7 times, the “% GFP+ cells at final timepoint” value (PGK promoter, day 27) was 29% and the “expressing cells / improvement over the negative control” value (PGK promoter, day 27) was 5 fold. For the same molecule, the “% GFP+ cells at final timepoint” value (RSV promoter, day 26) was 76% and the “% GFP+ cells, representative example (one biological replicate)” value (RSV promoter, day 26) was 79.6%.
